From patent US20250243286A1 (SIXPEAKS BIO, published 2025)
Where a chain is given by its changes, count along the chain named. Where two headings read alike, the source gives them in different places.

T1: human ActRIIB (human, UniProt Q13705 19-137, limits assumed)
T1 construct: antigen in MSD-SET; also called ACVR2B; ActR2B
T1 sequence: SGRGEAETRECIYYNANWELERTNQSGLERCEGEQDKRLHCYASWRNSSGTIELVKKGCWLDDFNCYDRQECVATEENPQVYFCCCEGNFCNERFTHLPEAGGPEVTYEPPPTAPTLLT

B1: Antibody Bebballesgmias (antibody, V domains shown)
VH: QVQLVQSGAEVKKPGSSVKVSCKASGYKFTSSYINWVRQAPGQGLEWMGTINPVSGSTSYAQKFQGRVTITADTSTSTAYMELSSLRSEDTAVYYCARGGWFDYWGQGTLVTVSS
VL: QSALTQPRSVSGSPGQSVTISCTGTSSDVGSYNYVNWYQQHPGKAPKLMIYGVSKRPRGVPDRFSGSKSGNTASLTISGLQAEDEADYYCGTFAGGSYYGVFGGGTKLTVL
notes: full-length IgG
B2: Fasnetsküchla Fab (Fab, V domains shown)
VH: B1 VH with S16A, K28T, P53A, I70M, A72R, T76I, S85R, E89D
VL: B1 VL with R8A, V18I, Y32A, L48P, K55R, R58S, P61S, D62N, S97K
notes: Fab
B3: Antibody Backstoikäs (antibody, V domains shown)
VH: B1 VH with S16A, I70M, A72R, T76I, S85R, E89D
VL: B1 VL with R8A, V18I, P61S, D62N
notes: full-length IgG
B4: Antibody Soidawürstle (antibody, V domains shown)
VH: B1 VH with K12R, K28T
VL: B1 VL with Y34R, P57E, R58S, S97R
notes: full-length IgG; also called Soidawüsrstel
B5: Antibody Ochsamaulsalat (antibody, V domains shown)
VH: B1 VH with S16A, K28T, P53A, I70M, A72R, T76I, S85R, E89D
VL: B1 VL with R8A, V18I, Y32R, P57E, R58S, P61S, D62N, S97D
notes: full-length IgG
B6: Antibody Schwardamaga (antibody, V domains shown)
VH: B1 VH with K28T, P53A
VL: B1 VL with Y32A, L48P, K55R, R58S, S97K
notes: full-length IgG

Key:
human ActRIIB [1] = target: T1, human ActRIIB; experiment: MSD-SET
human ActRIIA [2] = target: T2, human ActRIIA (human, UniProt P27037 20-135, limits assumed); experiment: MSD-SET
T2 construct: antigen in MSD-SET; also called ACVR2A; ActR2A

[3] = target: T3, ActRIIA and ActRIIB (on TGFB/SMAD SBE Reporter HEK293 cells) (human); experiment: cell-based or functional assay
human ActRIIB [4] = target: T1, human ActRIIB; experiment: MSD-SET, preliminary
human ActRIIA [5] = target: T2, human ActRIIA; experiment: MSD-SET, preliminary
human ActRIIB [6] = target: T1, human ActRIIB; experiment: MSD-SET; remark: listed apart in the source
human ActRIIA [7] = target: T2, human ActRIIA; experiment: MSD-SET; remark: listed apart in the source
human ActRIIB [8] = target: T1, human ActRIIB; experiment: MSD-SET; remark: listed apart in the source
human ActRIIA [9] = target: T2, human ActRIIA; experiment: MSD-SET; remark: listed apart in the source
human ActRIIB [10] = target: T1, human ActRIIB; experiment: MSD-SET, Fab KD over IgG KD
human ActRIIA [11] = target: T2, human ActRIIA; experiment: MSD-SET, Fab KD over IgG KD
[12] = target: T3, ActRIIA and ActRIIB (on TGFB/SMAD SBE …); experiment: cell-based or functional assay; remark: listed apart in the source
human ActRIIB [13] = target: T1, human ActRIIB; experiment: affinity measurement
human ActRIIB [14] = target: T1, human ActRIIB; experiment: MSD-SET; remark: listed apart in the source
human ActRIIA [15] = target: T2, human ActRIIA; experiment: MSD-SET; remark: listed apart in the source
[16] = target: T3, ActRIIA and ActRIIB (on TGFB/SMAD SBE …); experiment: cell-based or functional assay; remark: listed apart in the source
human ActRIIB [17] = target: T1, human ActRIIB; experiment: MSD-SET; remark: listed apart in the source
human ActRIIA [18] = target: T2, human ActRIIA; experiment: MSD-SET; remark: listed apart in the source

T2 sequence (P27037 20-135 limits assumed): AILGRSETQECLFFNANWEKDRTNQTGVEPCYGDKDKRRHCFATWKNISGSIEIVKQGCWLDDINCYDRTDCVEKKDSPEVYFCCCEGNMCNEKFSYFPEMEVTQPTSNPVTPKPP

Row | Binder | Kd (human ActRIIB [1]) | Kd (human ActRIIA [2]) | IC50, Activin SMAD RGA [3] | IC50, Myostatin SMAD RGA [3] | IC90, Activin SMAD RGA [3] | IC90, Myostatin SMAD RGA [3] | Kd (human ActRIIB [4]) | Kd (human ActRIIA [5]) | Kd (human ActRIIB [6]) | Kd (human ActRIIA [7]) | Kd (human ActRIIB [8]) | Kd (human ActRIIA [9]) | IC50, Activin SMAD RGA [12] | IC50, Myostatin SMAD RGA [12] | Kd (human ActRIIB [14]) | Kd (human ActRIIA [15]) | IC50, Activin SMAD RGA [16] | IC50 fold difference to bimagrumab, Activin SMAD RGA [16] | IC90, Activin SMAD RGA [16] | IC90 fold difference to bimagrumab, Activin SMAD RGA [16] | also measured
1 | B1 | 1.3 pM | 0.067 nM | 0.171 nM | 0.181 nM | 2.88 nM | 1.94 nM | 0.0167 nM | 0.142 nM | 0.0167 nM | 0.142 nM |  |  |  |  |  |  |  |  |  |  | IC50, myostatin inhibition (SMAD RGA) [3]: 0.171 nM
2 | B2 |  |  |  |  |  |  |  |  |  |  | 0.026 nM | 0.114 nM | 1.21 nM | 2.32 nM |  |  |  |  |  |  | Fold difference (Fab:IgG) (human ActRIIB [10]): 3.1 fold; Fold difference (Fab:IgG) (human ActRIIA [11]): 3.9 fold; IC50 fold difference (Fab:IgG), Activin SMAD RGA [12]: 2.8 fold; IC50 fold difference (Fab:IgG), Myostatin SMAD RGA [12]: 4.8 fold
3 | B3 |  |  | 0.18 nM | 0.0875 nM | 3.71 nM | 1.23 nM |  |  |  |  |  |  |  |  |  |  |  |  |  |  | binding result (human ActRIIB [13]): binds
4 | B4 |  |  |  | 0.13 nM | 2.16 nM | 6.63 nM | 0.0508 nM | 0.0345 nM | 0.0055 nM | 0.0342 nM |  |  |  |  | 5.5 pM | 0.0342 nM | 0.16 nM | 2 fold | 1.81 nM | 0.3 fold | IC95, Activin SMAD RGA [16]: 4.84 nM; IC95 fold difference to bimagrumab, Activin SMAD RGA [16]: 14.9 fold; IC99, Activin SMAD RGA [16]: 19.3 nM; IC99 fold difference to bimagrumab, Activin SMAD RGA [16]: 59.5 fold; IC50 fold difference to bimagrumab, Myostatin SMAD RGA [3]: 4.3 fold; IC90 fold difference to bimagrumab, Activin SMAD RGA [3]: 4.3 fold; IC90 fold difference to bimagrumab, Myostatin SMAD RGA [3]: 2 fold; IC95, Activin SMAD RGA [3]: 8.86 nM; IC95, Myostatin SMAD RGA [3]: 35 nM; IC95 fold difference to bimagrumab, Activin SMAD RGA [3]: 4.3 fold; IC95 fold difference to bimagrumab, Myostatin SMAD RGA [3]: 1.6 fold; IC99, Activin SMAD RGA [3]: 200 nM; IC99, Myostatin SMAD RGA [3]: 2000 nM; IC99 fold difference to bimagrumab, Activin SMAD RGA [3]: 4.1 fold; IC99 fold difference to bimagrumab, Myostatin SMAD RGA [3]: 1.3 fold
5 | B5 | 8.2 pM | 0.0232 nM |  | 0.653 nM | 2.51 nM | 5.59 nM |  |  |  |  | 0.01 nM | 0.02 nM | 0.43 nM | 0.55 nM |  |  |  |  |  |  | Kd (human ActRIIB [17]): 0.01 nM; Kd (human ActRIIA [18]): 0.02 nM
6 | B6 |  |  |  | 0.75 nM | 5.34 nM | 14.7 nM | 0.0293 nM |  | 0.0129 nM | 0.0404 nM |  |  |  |  | 12.9 pM | 0.0404 nM | 0.46 nM | 0.7 fold | 5.09 nM | 0.8 fold | IC95, Activin SMAD RGA [16]: 12.8 nM; IC95 fold difference to bimagrumab, Activin SMAD RGA [16]: 39.3 fold; IC99, Activin SMAD RGA [16]: 99 nM; IC99 fold difference to bimagrumab, Activin SMAD RGA [16]: 305 fold; IC50 fold difference to bimagrumab, Myostatin SMAD RGA [3]: 0.7 fold; IC90 fold difference to bimagrumab, Activin SMAD RGA [3]: 1.8 fold; IC90 fold difference to bimagrumab, Myostatin SMAD RGA [3]: 0.9 fold; IC95, Activin SMAD RGA [3]: 14.2 nM; IC95, Myostatin SMAD RGA [3]: 41.5 nM; IC95 fold difference to bimagrumab, Activin SMAD RGA [3]: 2.7 fold; IC95 fold difference to bimagrumab, Myostatin SMAD RGA [3]: 1.3 fold; IC99, Activin SMAD RGA [3]: 124 nM; IC99, Myostatin SMAD RGA [3]: 425 nM; IC99 fold difference to bimagrumab, Activin SMAD RGA [3]: 6.7 fold; IC99 fold difference to bimagrumab, Myostatin SMAD RGA [3]: 6.3 fold
